# What was measured:
# [1] = molecular target: chloroplastic glutamine synthetase GS2 of wheat (Triticum aestivum (endogenous in wheat seedlings)); test: native gel or EMSA; modified blue native electrophoresis (BNE), 4-13% polyacrylamide gradient gel, 4 °C; 1 h with cathode buffer with 0.02% Coomassie G250, then buffer without dye; ~100 ug soluble proteins from wheat seedling chloroplasts, leaves and roots; GS bands detected by in-gel transferase activity; mass calibrated against high-molecular-weight markers
# [2] = molecular target: cytosolic glutamine synthetase GS1 holoenzyme of wheat (39 kDa subunit) (Triticum aestivum (endogenous in wheat seedlings)) (UniProt Q45NB7); test: as above
# [3] = molecular target: maize glutamine synthetase (maize (endogenous in maize leaf and roots)); test: native gel or EMSA; maize leaf and root extracts beside wheat (Supplementary Fig. S5); gel system not given
substance,measurement,setting,value
chloroplastic glutamine synthetase GS2 of wheat (natural protein),stoichiometry N,[1],6
cytosolic glutamine synthetase GS1 holoenzyme of wheat (39 kDa subunit) (from UniProt Q45NB7 1-356) (natural protein),stoichiometry N,[2],12
maize glutamine synthetase (natural protein),stoichiometry N,[3],10
